Here are results for ten molecules from WO2021228904A1 (dated 2021).

As usually defined, the Kd is a measure of binding affinity in units of concentration. A low value points to a tighter complex.

This test has as its target stabilized prefusion SARS-CoV-2 S ectodomain (SARS-CoV-2 (Wuhan-Hu-1), UniProt P0DTC2 15-1138). Kind of test: SPR.

B1: COVA2-29 (antibody, V domains shown)
VH: EVQLVESGGGVVQPGRSLRLSCAASGFTFSSYTMHWVRQAPGKGLEWVAVISYDGSNKYYADSVKGRFTISRDNSKNTLYLQMNSLRAEDTAVYYCASLPVVPAAIGPLPAFDIWGQGTMVTVSS
VL: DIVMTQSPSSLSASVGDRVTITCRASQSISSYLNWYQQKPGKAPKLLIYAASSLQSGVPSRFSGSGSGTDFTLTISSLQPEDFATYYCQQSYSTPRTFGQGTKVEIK
Molecule B1 came in with a Kd not above 1 nM.

B2: SEQ ID NOs: 469/473 (HCVR/LCVR) (antibody, V domains shown)
VH: QVQLVQSGAEVKKPGESLRISCKGSGYSFTSHWISWVRQMPGKGLEWMGRIDPSDSYTNYSPSFQGHVTISADKSISTAYLQWSSLKASDTAMYYCARLKVITIFGVVRDDYGMDVWGQGTTVTVSS
VL: QSALTQPASVSGSPGQSITISCTGTSSDVGSYNLVSWYQQHPGKAPKLMIYDSSKRPSGVSNRFSGSKSGNTASLTISGLQAEDEADYYCCSYAGSVFGGGTKLTVL
Take B2: the Kd is not above 1 nM.

B3: COVA1-16 (antibody, V domains shown)
VH: QVQLVQSGAEVKKPGASVKVSCKASGYTFTSYYMHWVRQAPGQGLEWMGIINSSGGSTSYAQKFQGRVTMTRDTSTSTVYMELSSLRSEDTAVYYCARPPRNYYDRSGYYQRAEYFQHWGQGTLVTVSS
VL: DIQLTQSPSSLSASVGDRVTITCQASQDISNYLNWYQQRPGKAPKLLIYDASNLETGVPSRFSGSGSGTDFTFTISSLQPEDIATYYCQQYDNPPLTFGGGTKLEIK
For the molecule B3, the Kd is not above 1 nM.

B4: COVA2-02 (antibody, V domains shown)
VH: VQLQQESGPGLVKPSETLSLTCTVSGGSISSSSYYWGWIRQPPGKGLEWIGSIYYSGSTYYNPSLKSRVTISVDTSKNQFSLKLSSVTAADTAVYYCARRSTSRWGYYYMDVWGKGTRVTVSS
VL: DIVMTQSPSSLSASVGDRVTITCRASQSISNYLNWYQQKPGKAPKLLLYAASDLQSGVPSRFSGSGSGTDFTLTISSLQPEDFATYYCQQSYSTHMSTFGQGTKVDIK
Molecule B4 yielded a Kd not above 1 nM.

B5: 002_P1D6 (antibody, V domains shown)
VH: EVQLLESGAEVKKPGESLKISCKGSGYSFTSYWIGWVRQMPGKGLEWMGIIYPGDSDTRYSPSFQGQVTISADKSISTAYLQWSSLKASDTAMYYCARHMRPSIAARPGYQYYMDVWGKGTRVTVSS
VL: not shown
B5: the Kd was not above 1 nM.

B6: 002_P2H1 (antibody, V domains shown)
VH: EVQLVESGGGLIQPGGSLRLSCAASGFTVSSNYMSWVRQAPGKGLEWVSVIYSGGSTYYADSVKGRFTISRDNSKNTLYLQMNSLRAEDTAVYYCASPLLLTPPDYYYYMDVWGKGTMVTVSS
VL: DVVMTQSPSSLSVSVGDRVTITCRASQGIRNDLGWYQQKPGKAPKRLIYAASSLQSGVPSRFSGSGSGTEFTLTISSLQPEDFATYYCLQHNSYLWTFGQGTKLEIK
For B6, the Kd was not above 1 nM.

B7: COVA2-39 (antibody, V domains shown)
VH: QVQLVETGGGLIQPGGSLRLSCAASGFTVSSNYMSWVRQAPGKGLEWVSVIYTGGTTYYADSVKGRFTISRDNSKNTLYLQMNSLRAEDTAVYYCARAHVDTAMVESGAFDIWGQGTRVTVSS
VL: QSALTQPASVSGSPGQSITISCTGTSSDVGSYNLVSWYQQHPGKAPKLMIYEVTKRPSGVSNRFSGSKSGNTASLTISGLQAEDEADYYCCSYAGSSTWVFGGGTKLTVL
Consider B7, for which the equilibrium dissociation constant (Kd) is not above 1 nM.

B8: SEQ ID NOs: 233/237 (HCVR/LCVR) (antibody, V domains shown)
VH: EVQLVESGGGLVQPGGSLRLSCAASGFTFSSYSMNWVRQAPGKGLEWVSYISSSSSTIYYADSVKGRFTISRDNAKNSLYLQMNSLRAEDTAVYYCAREANSDFWSGYLGYFDYWGQGTLVTVSS
VL: EIVMTQSPATLSLSPGERATLSCRASQSVSSYLAWYQQKPGQAPRLLIYDASNRATGIPARFSGSGSGTDFTLTISSLEPEDFAVYYCQQRSNWPQVTFGQGTRLEIK
In turn, B8 returned a Kd not above 1 nM.

B9: SEQ ID NOs: 389/393 (HCVR/LCVR) (antibody, V domains shown)
VH: EVQLVESGAEVKKPGSSVKVSCKASGGTFSSYAISWVRQAPGQGLEWMGGIIPIFGTANYAQKFQGRVTITTDESTSTAYMELSSLRSEDTAVYYCARGPRYCSSTSCYAGVYFDYWGQGTRVTVSS
VL: not shown
On to B9, for which the Kd is not above 1 nM.

B10: 002_P1H2 (antibody, V domains shown)
VH: EVQLVESGAEVKKPGSSVKVSCKASGGTLSSYAISWVRQAPGQGLEWMGGIIPIFGTANYAQKFQGRVTITTDESTSTAYMELSSLRSEDTAVYYCARGPRGCSSTSCYGSYFDYWGQGTLVTVSS
VL: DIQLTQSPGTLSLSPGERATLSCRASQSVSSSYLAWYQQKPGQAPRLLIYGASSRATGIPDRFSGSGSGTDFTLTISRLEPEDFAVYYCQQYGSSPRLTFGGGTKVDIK
Molecule B10 returned a Kd not above 1 nM.
